In US20260132197A1 (NANJING LEGEND BIOTECH, published 2026):
One block for each binder: values may come before it.

Key:
Human CD47-C33G [1] = target: T1, Human CD47-C33G (human, UniProt Q08722 19-135); assay: SPR, IgG captured, CD47 in flow; exp 1
T1 construct: also called CD47 mutein with C33G mutation

[2] = target: T2, wild type human CD47 (Acro Biosystems, cat. no. CD7-H5227) (human, UniProt Q08722 19-139); assay: SPR, IgG captured, CD47 in flow; exp 1
T2 construct: Bought protein used as SPR analyte; also called Human CD47 wt; wild-type CD47

Human CD47-C33G [3] = target: T1, Human CD47-C33G; assay: SPR, IgG captured, CD47 in flow; exp 1; remark: listed apart in the source
[4] = target: T2, wild type human CD47 (Acro Biosystems, …); assay: SPR, IgG captured, CD47 in flow; exp 2;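 further: rates derived from association and dissociation curves, KD estimated from them, C33G mutein used to avoid CD47 IgV homodimers for true monovalent affinity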
Human CD47-C33G [5] = target: T1, Human CD47-C33G; assay: SPR, IgG captured, CD47 in flow; exp 2;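 further: rates derived from association and dissociation curves, KD estimated from them, C33G mutein used to avoid CD47 IgV homodimers for true monovalent affinity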
[6] = target: T2, wild type human CD47 (Acro Biosystems, …); assay: SPR, IgG captured, CD47 in flow; exp 3
Human CD47-C33G [7] = target: T1, Human CD47-C33G; assay: SPR, IgG captured, CD47 in flow; exp 3
[8] = target: T2, wild type human CD47 (Acro Biosystems, …); assay: SPR, IgG captured, CD47 in flow; exp 4
Human CD47-C33G [9] = target: T1, Human CD47-C33G; assay: SPR, IgG captured, CD47 in flow; exp 4
[10] = target: T3, human CD47 on cells (SHP-77 tumor cells, human red blood cells, CCRF-CEM cells, human CD47 CHO-K1 stable cell … (human, UniProt Q08722 19-323)); assay: cell-based or functional assay
[11] = target: T3, human CD47 on cells (SHP-77 tumor …); assay: flow cytometry on SHP-77 cells
[12] = target: T2, wild type human CD47 (Acro Biosystems, …); assay: SPR, IgG captured, CD47 in flow; exp 4; remark: listed apart in the source
Human CD47-C33G [13] = target: T1, Human CD47-C33G; assay: SPR, IgG captured, CD47 in flow; exp 4; remark: listed apart in the source
[14] = target: T3, human CD47 on cells (SHP-77 tumor …); assay: flow cytometry on human CD47 CHO-K1 cells
[15] = target: T4, cynomolgus CD47 on CHO-K1 stable cell line (cynomolgus, UniProt A0A5F8AK49 19-323 (rhesus entry)); assay: flow cytometry on cynomolgus CD47 CHO-K1 cells
T4 construct: whole, on cells; also called cynomolgus CD47/CHO-K1

[16] = target: T3, human CD47 on cells (SHP-77 tumor …); assay: flow cytometry on human RBCs; plateau not reached, not accurate;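 on Fitted Maximal MFI: antibody binding measured by flow cytometry as geometric mean fluorescence intensity over a range of antibody concentrations, with EC50 and maximum taken from a sigmoidal dose-response fit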
[17] = target: T3, human CD47 on cells (SHP-77 tumor …); assay: flow cytometry on human RBCs;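 further: antibody binding measured by flow cytometry as geometric mean fluorescence intensity over a range of antibody concentrations, with EC50 and maximum taken from a sigmoidal dose-response fit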
[18] = target: T2, wild type human CD47 (Acro Biosystems, …); assay: SPR, IgG captured, CD47 in flow; exp 3; remark: listed apart in the source
Human CD47-C33G [19] = target: T1, Human CD47-C33G; assay: SPR, IgG captured, CD47 in flow; exp 3; remark: listed apart in the source
[20] = target: T3, human CD47 on cells (SHP-77 tumor …); assay: flow cytometry on human RBCs; poor fitting, not accurate;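 on Fitted Maximal MFI: antibody binding measured by flow cytometry as geometric mean fluorescence intensity over a range of antibody concentrations, with EC50 and maximum taken from a sigmoidal dose-response fit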
[21] = target: T2, wild type human CD47 (Acro Biosystems, …); assay: SPR, IgG captured, CD47 in flow; exp 1; remark: listed apart in the source
Human CD47-C33G [22] = target: T1, Human CD47-C33G; assay: SPR, IgG captured, CD47 in flow; exp 1; remark: listed apart in the source

B1: 108VH10 / 108VL10.M1 (antibody, V domains shown)
VH: EVQLVESGGGLVQPGGSLRLSCAASGYSFTHHWIHWVRQAPGKGLEWVAMIDPSDSETRLSQKFKDRFTISADTSKNTAYLQMNSLRAEDTAVYYCSRLGRYYFDYWGQGTLVTVSS
VL: DIQMTQSPSSLSASVGDRVTITCRASENVGTYISWYQQKPGKAPKLLIYGASNRYTGVPSRFSGSRSGTDFTLTISSLQPEDFATYYCGESYGHLYTFGQGTKVEIK
notes: 4D5-framework series; also called VH10 VL10.M1; straight-graft antibody
fold drop of mono-valent binding affinity (reference not given; Table 2, experiment 1) (Human CD47-C33G [1]): 34 fold
Kd [2]: 5.6 nM
koff [2]: 0.0013 s⁻¹
kon [2]: 230000 M⁻¹ s⁻¹
Kd (Human CD47-C33G [3]): 34 nM
koff (Human CD47-C33G [3]): 0.0034 s⁻¹
kon (Human CD47-C33G [3]): 99000 M⁻¹ s⁻¹
Kd [4]: 5.8 nM
koff [4]: 0.0016 s⁻¹
kon [4]: 280000 M⁻¹ s⁻¹
Kd (Human CD47-C33G [5]): 43 nM
koff (Human CD47-C33G [5]): 0.0038 s⁻¹
kon (Human CD47-C33G [5]): 87000 M⁻¹ s⁻¹
Kd [6]: 6.1 nM
koff [6]: 0.0014 s⁻¹
kon [6]: 230000 M⁻¹ s⁻¹
Kd (Human CD47-C33G [7]): 36 nM
koff (Human CD47-C33G [7]): 0.003 s⁻¹
kon (Human CD47-C33G [7]): 85000 M⁻¹ s⁻¹
Kd [8]: 5.2 nM
koff [8]: 0.0013 s⁻¹
kon [8]: 240000 M⁻¹ s⁻¹
Kd (Human CD47-C33G [9]): 28 nM
koff (Human CD47-C33G [9]): 0.003 s⁻¹
kon (Human CD47-C33G [9]): 110000 M⁻¹ s⁻¹

B2: 108VH5.M22 / 108VL1.M5 (antibody, human IgG4 S228P, kappa, V domains shown)
VH: EVQLVQSGAEVKKPGASVKVSCKASGYTFTHHWMHWVRQAPGQGLEWMGMIDASDIETRYAQKFQGRVTMTRDTSTSTVYMELSSLRSEDTAVYYCARLGRYYFDYWGQGTLVTVSS
VL: EIVLTQSPATLSLSPGERATLSCRASQSVSSYLAWYQQKPGQAPRLLIYGASNRATGIPARFSGSGSGTDFTLTISSLEPEDFAVYYCGESYGHLYTFGGGTKVEIKR
notes: Full-length IgG4 (S228P), kappa; also called VH5.M22 VL1.M5
CCRF-CEM phagocytosis EC50 [10]: 0.37 nM
CCRF-CEM phagocytosis, Phagocytosis (%) [10]: 59.4%
EC50 [11]: 8.4 nM
Fitted Maximal MFI [11]: 41600 MFI
Kd [12]: 6.1 nM
koff [12]: 0.0029 s⁻¹
kon [12]: 480000 M⁻¹ s⁻¹
Kd (Human CD47-C33G [13]): 35 nM
koff (Human CD47-C33G [13]): 0.0068 s⁻¹
kon (Human CD47-C33G [13]): 200000 M⁻¹ s⁻¹
EC50 [14]: 3.6 nM
EC50 [15]: 3.6 nM
EC50 [16]: 10.1 nM

Continued by falling EC50 [11], values first:

Fitted Maximal MFI [17]: 45300 MFI
EC50 [11]: 6.9 nM
Fitted Maximal MFI [11]: 44700 MFI
Kd [18]: 2.6 nM
koff [18]: 0.0019 s⁻¹
kon [18]: 720000 M⁻¹ s⁻¹
Kd (Human CD47-C33G [19]): 14 nM
koff (Human CD47-C33G [19]): 0.0041 s⁻¹
kon (Human CD47-C33G [19]): 290000 M⁻¹ s⁻¹
EC50 [14]: 1.9 nM
EC50 [15]: 1.8 nM
EC50 [20]: 3.9 nM
B3: 108VH5.M16 / 108VL1.M5 (antibody, human IgG4 S228P, kappa, V domains shown)
VH: EVQLVQSGAEVKKPGASVKVSCKASGYTFTHHWMHWVRQAPGQGLEWMGMIDASDGETRYAQKFQGRVTMTRDTSTSTVYMELSSLRSEDTAVYYCARLGRYYFDYWGQGTLVTVSS
VL: EIVLTQSPATLSLSPGERATLSCRASQSVSSYLAWYQQKPGQAPRLLIYGASNRATGIPARFSGSGSGTDFTLTISSLEPEDFAVYYCGESYGHLYTFGGGTKVEIKR
notes: Full-length IgG4 (S228P), kappa; also called VH5.M16 VL1.M5

EC50 [11]: 5.5 nM
Fitted Maximal MFI [11]: 46600 MFI
Kd [21]: 0.4 nM
koff [21]: 0.00042 s⁻¹
kon [21]: 1.1e+06 M⁻¹ s⁻¹
Kd (Human CD47-C33G [22]): 1.8 nM
koff (Human CD47-C33G [22]): 0.00087 s⁻¹
kon (Human CD47-C33G [22]): 480000 M⁻¹ s⁻¹
Kd [18]: 0.41 nM
koff [18]: 0.00041 s⁻¹
kon [18]: 1e+06 M⁻¹ s⁻¹
Kd (Human CD47-C33G [19]): 1.9 nM
koff (Human CD47-C33G [19]): 0.00084 s⁻¹
kon (Human CD47-C33G [19]): 430000 M⁻¹ s⁻¹
Kd [12]: 0.38 nM
koff [12]: 0.00041 s⁻¹
kon [12]: 1.1e+06 M⁻¹ s⁻¹
Kd (Human CD47-C33G [13]): 1.5 nM
koff (Human CD47-C33G [13]): 0.00086 s⁻¹
kon (Human CD47-C33G [13]): 570000 M⁻¹ s⁻¹
Kd [2]: 0.39 nM
koff [2]: 0.00039 s⁻¹
kon [2]: 1e+06 M⁻¹ s⁻¹
Kd (Human CD47-C33G [3]): 2.1 nM
koff (Human CD47-C33G [3]): 0.00087 s⁻¹
kon (Human CD47-C33G [3]): 410000 M⁻¹ s⁻¹
Kd [4]: 0.47 nM
koff [4]: 0.00046 s⁻¹
kon [4]: 980000 M⁻¹ s⁻¹
Kd (Human CD47-C33G [5]): 2.6 nM
koff (Human CD47-C33G [5]): 0.00097 s⁻¹
kon (Human CD47-C33G [5]): 380000 M⁻¹ s⁻¹
Kd [6]: 0.41 nM
koff [6]: 0.00041 s⁻¹
kon [6]: 1e+06 M⁻¹ s⁻¹
Kd (Human CD47-C33G [7]): 1.9 nM
koff (Human CD47-C33G [7]): 0.00084 s⁻¹
kon (Human CD47-C33G [7]): 430000 M⁻¹ s⁻¹
Kd [8]: 0.38 nM
koff [8]: 0.00041 s⁻¹
kon [8]: 1.1e+06 M⁻¹ s⁻¹
Kd (Human CD47-C33G [9]): 1.5 nM
koff (Human CD47-C33G [9]): 0.00086 s⁻¹
kon (Human CD47-C33G [9]): 570000 M⁻¹ s⁻¹
EC50 [14]: 2.6 nM
EC50 [15]: 4.3 nM
EC50 [16]: 7.6 nM
B4: 108VH4.M4-VL1.M1 (antibody, V domains shown)
VH: EVQLVQSGAEVKKPGSSVKVSCKASGYSFTHHWIHWVRQAPGQGLEWMGMIDASDSETRLSQKFKDRVTITADKSTSTAYMELSSLRSEDTAVYYCARLGRYYFDYWGQGTTVTVSS
VL: EIVLTQSPATLSLSPGERATLSCRASENVGTYISWYQQKPGQAPRLLIYGASNRYTGIPARFSGSGSGTDFTLTISSLEPEDFAVYYCGESYGHLYTFGGGTKVEIK
notes: also called original humanized 108C10A6 antibody
